Tests used:
[1] = target: T1, ScpAΔFn123 (Streptococcus pyogenes) (UniProt P15926)
T1 sequence: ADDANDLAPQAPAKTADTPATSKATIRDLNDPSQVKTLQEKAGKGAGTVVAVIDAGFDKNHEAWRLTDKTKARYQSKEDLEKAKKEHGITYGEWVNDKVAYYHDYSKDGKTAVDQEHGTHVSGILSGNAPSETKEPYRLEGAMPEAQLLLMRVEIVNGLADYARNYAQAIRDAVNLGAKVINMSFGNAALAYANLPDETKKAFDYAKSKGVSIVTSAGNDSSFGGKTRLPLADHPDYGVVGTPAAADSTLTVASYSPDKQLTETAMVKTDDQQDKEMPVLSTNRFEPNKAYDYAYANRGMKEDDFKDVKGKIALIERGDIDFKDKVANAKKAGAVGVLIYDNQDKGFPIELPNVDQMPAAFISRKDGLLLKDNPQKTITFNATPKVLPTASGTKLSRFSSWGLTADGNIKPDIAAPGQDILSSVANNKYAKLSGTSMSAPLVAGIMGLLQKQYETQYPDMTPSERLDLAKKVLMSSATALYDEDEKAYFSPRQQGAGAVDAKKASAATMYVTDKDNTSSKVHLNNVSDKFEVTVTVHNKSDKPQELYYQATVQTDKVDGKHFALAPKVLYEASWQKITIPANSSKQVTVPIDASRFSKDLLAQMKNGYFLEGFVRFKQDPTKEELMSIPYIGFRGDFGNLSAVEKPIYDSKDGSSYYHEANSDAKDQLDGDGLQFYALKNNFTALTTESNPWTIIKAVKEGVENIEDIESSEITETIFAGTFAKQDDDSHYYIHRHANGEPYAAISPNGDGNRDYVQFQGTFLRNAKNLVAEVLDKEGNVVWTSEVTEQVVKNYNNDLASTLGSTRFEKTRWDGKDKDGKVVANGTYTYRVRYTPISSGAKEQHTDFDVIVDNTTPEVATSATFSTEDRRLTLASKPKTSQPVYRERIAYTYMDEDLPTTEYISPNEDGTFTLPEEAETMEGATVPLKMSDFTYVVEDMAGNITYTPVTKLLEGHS

rhC5a_(R46A) (human) = test: SPR; as a1 (NTA chip, immobilised His-tagged C5a form, D783A_(S512A) flowed, 25 °C, Hepes buffer), but KD from fitting of the response units at equilibrium because of very fast dissociation; triplicate
R40A_(core) (human) = test: as above
rhC5a_(R37A) (human) = test: as above
rhC5a_(R40A) (human) = test: as above
R46A_(core) (human) = test: as above
R37A_(core) (human) = test: as above
rhC5a_(core) (human) = test: SPR; BIAcore X100, NTA sensor chip with about 20-25 RU of immobilised His-tagged C5a form (ligand), ScpA form flowed as ligate at 30 uL/min, 25 °C, 10 mM Hepes-KOH pH 7.4, 150 mM NaCl, 0.005% Tween 20, 50 uM EDTA; global fit, 1:1 Langmuir model with drifting baseline; triplicate

Row | Binder | C5a-ase activity of ScpAΔFn123 complemented with Fn123, end-point assay, relative to the wild-type enzyme (data not shown) [1] [%] | Kd (rhC5a_(R46A) (human)) [µM] | Kd (R40A_(core) (human)) [µM] | Kd (rhC5a_(R37A) (human)) [µM] | Kd (rhC5a_(R40A) (human)) [µM] | Kd (R46A_(core) (human)) [µM] | Kd (R37A_(core) (human)) [µM] | Kd (rhC5a_(core) (human)) [µM] | koff (rhC5a_(core) (human)) [s⁻¹] | kon (rhC5a_(core) (human)) [M⁻¹ s⁻¹]
1 | Fn123 (domain or fragment) ADDANDLAPQAPAKTADTPATSKATIRDLNDPSQVKTLQEKAGKGAGTVVAVIDAGFDKNHEAWRLTDKTKARYQSKEDLEKAKKEHGITYGEWVNDKVAYYHDYSKDGKTAVDQEHGTHVSGILSGNAPSETKEPYRLEGAMPEAQLLLMRVEIVNGLADYARNYAQAIRDAVNLGAKVINMSFGNAALAYANLPDETKKAFDYAKSKGVSIVTSAGNDSSFGGKTRLPLADHPDYGVVGTPAAADSTLTVASYSPDKQLTETAMVKTDDQQDKEMPVLSTNRFEPNKAYDYAYANRGMKEDDFKDVKGKIALIERGDIDFKDKVANAKKAGAVGVLIYDNQDKGFPIELPNVDQMPAAFISRKDGLLLKDNPQKTITFNATPKVLPTASGTKLSRFSSWGLTADGNIKPDIAAPGQDILSSVANNKYAKLSGTSMSAPLVAGIMGLLQKQYETQYPDMTPSERLDLAKKVLMSSATALYDEDEKAYFSPRQQGAGAVDAKKASAATMYVTDKDNTSSKVHLNNVSDKFEVTVTVHNKSDKPQELYYQATVQTDKVDGKHFALAPKVLYEASWQKITIPANSSKQVTVPIDASRFSKDLLAQMKNGYFLEGFVRFKQDPTKEELMSIPYIGFRGDFGNLSAVEKPIYDSKDGSSYYHEANSDAKDQLDGDGLQFYALKNNFTALTTESNPWTIIKAVKEGVENIEDIESSEITETIFAGTFAKQDDDSHYYIHRHANGEPYAAISPNGDGNRDYVQFQGTFLRNAKNLVAEVLDKEGNVVWTSEVTEQVVKNYNNDLASTLGSTRFEKTRWDGKDKDGKVVANGTYTYRVRYTPISSGAKEQHTDFDVIVDNTTPEVATSATFSTEDRRLTLASKPKTSQPVYRERIAYTYMDEDLPTTEYISPNEDGTFTLPEEAETMEGATVPLKMSDFTYVVEDMAGNITYTPVTKLLEGHS | 0.1 | – | – | – | – | – | – | – | – | –
2 | ScpA_(S512A,D783A) (enzyme) ANTVTEDTPVTEQAVETPQPTAVSEEVPSSKETKTPQTPDDAEETIADDANDLAPQAPAKTADTPATSKATIRDLNDPSQVKTLQEKAGKGAGTVVAVIDAGFDKNHEAWRLTDKTKARYQSKEDLEKAKKEHGITYGEWVNDKVAYYHDYSKDGKTAVDQEHGTHVSGILSGNAPSETKEPYRLEGAMPEAQLLLMRVEIVNGLADYARNYAQAIRDAVNLGAKVINMSFGNAALAYANLPDETKKAFDYAKSKGVSIVTSAGNDSSFGGKTRLPLADHPDYGVVGTPAAADSTLTVASYSPDKQLTETAMVKTDDQQDKEMPVLSTNRFEPNKAYDYAYANRGMKEDDFKDVKGKIALIERGDIDFKDKVANAKKAGAVGVLIYDNQDKGFPIELPNVDQMPAAFISRKDGLLLKDNPQKTITFNATPKVLPTASGTKLSRFSSWGLTADGNIKPDIAAPGQDILSSVANNKYAKLSGTAMSAPLVAGIMGLLQKQYETQYPDMTPSERLDLAKKVLMSSATALYDEDEKAYFSPRQQGAGAVDAKKASAATMYVTDKDNTSSKVHLNNVSDKFEVTVTVHNKSDKPQELYYQATVQTDKVDGKHFALAPKVLYEASWQKITIPANSSKQVTVPIDASRFSKDLLAQMKNGYFLEGFVRFKQDPTKEELMSIPYIGFRGDFGNLSAVEKPIYDSKDGSSYYHEANSDAKDQLDGDGLQFYALKNNFTALTTESNPWTIIKAVKEGVENIEAIESSEITETIFAGTFAKQDDDSHYYIHRHANGEPYAAISPNGDGNRDYVQFQGTFLRNAKNLVAEVLDKEGNVVWTSEVTEQVVKNYNNDLASTLGSTRFEKTRWDGKDKDGKVVANGTYTYRVRYTPISSGAKEQHTDFDVIVDNTTPEVATSATFSTEDRRLTLASKPKTSQPVYRERIAYTYMDEDLPTTEYISPNEDGTFTLPEEAETMEGATVPLKMSDFTYVVEDMAGNITYTPVTKLLEGHS | – | 0.669 | > 15 | 2 | 1.5 | 4.33 | > 10 | 1.97 | 0.0216 | 11000
